Measured values reported in the nanobody polyreactivity screen of Harvey et al. (2022).

Assay: yeast display, Sf9 membrane polyspecificity reagent, FACS + sequencing; frameworks hold sequencing errors
Summary of the method: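 A nanobody's polyreactivity label depends on the gate it was sorted from. Yeast display cells were stained with 10% biotinylated, detergent-solubilized Sf9 membrane reagent for 1 hour at 4 °C, enriched on streptavidin microbeads and sorted by FACS. The low and high (top ~1%) gates were set on anti-HA fluorescence for expression and streptavidin fluorescence for reagent binding.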

Row | Sequence | polyreactivity (PSR sort gate)
1 | QVQLVESGGGLVQAGGSLRLSCAASGFTISYYAMGWYRQAPWKEGELVAAIRKSGATTDYADSVKGRFTISRDNAKNTVYLQMNCMKPEDTAVYYCNAKNDQRSLGFDFWRQGTQVTVSS | high polyreactivity
2 | QVQLVESGGGLVQAGGSLRLSCAASGFTITHYAMGWYRQAPGKERELVAAISTSGGSTYYADSVKGRFTISRDNAKNTVYLQMNSLKPEDTAVYYCAARRDGWVQWGYYYWGQGTQVTVSS | low polyreactivity
3 | QVQLVESGGGLVQAGGSLRLSCAASGFTITRYARGWYRQAPGKERELVAVITYSGDTYYADSVKGRFTISRDNAKNTVYLQMNSLKPEDTAVYYCAVERAYYSDTGRYGYDYWGQGTQVTVSS | high polyreactivity
4 | QVQLVESGGGLVQAGGSLRLSCAASGFTITTYAMGWYRQAPGKERELVAVISVSGGRTYYADSVKGRFTISRDNAKNTVYLQMNSLKPEDTAVYYCAAEYYPGWEYGYWGQGTQVTVSS | high polyreactivity
5 | QVQLVESGGGLVQAGGSLRLSCAASGFTIWPYAMGWYRQAPGKERELVAGITRNGGSTYYADSVKGRFTISRDIAKNTVYLQMNSLKPEDTAVYYCNTKYAVEFDYWGQGTQVTVSS | low polyreactivity
6 | QVQLVESGGGLVQAGGSLRLSCAASGFTIWYTMGSYRQAPGKEREFLAAITSGGGSTYYAESVKGRFTISRDNAKNTVYFQMNSLKPEDTAVYYCAARERSYRAYGYWRQGTQVTVSS | high polyreactivity
7 | QVQLVESGGGLVQAGGSLRLSCAASGFTIYNNAMGWYRQAPGKERELVAGITSGGDSTNYADSVKGRFTISRDNAKNTVYLQMNRLKPEDTAVYYCAAEGGTNTPGVVESDYWGQGTQVTVSS | low polyreactivity
8 | QVQLVESGGGLVQAGGSLRLSCAASGFTIYRYAMGWYRQAPGKERELVAAISSIGGSTYYADSVKGRFTISRDNSKNTVYLQMNSLKPEDTAVYYCAAAISLYSYDYWGQGTQVTVSS | low polyreactivity
9 | QVQLVESGGGLVQAGGSLRLSCAASGFTIYSYAMGWYRQAPGKERELVAAISSGGSTYYADSVKGRFTISRDNAKNTVYLQMNSLKPEDTAVYYCARRYQVVWYYKYDYWGQGTQVTVSS | high polyreactivity
10 | QVQLVESGGGLVQAGGSLRLSCAASGFTKFYNAMGWYRQAPGKERELVAAITARGGGTYYADSVKGRFTFSRDNAKNTVYLLMNSLKPEDTAVYYCAKQPIIYWQSSRFDYWGQGTQVTVSS | low polyreactivity
11 | QVQLVESGGGLVQAGGSLRLSCAASGFTLADNPMGWYRQAPGKERELVAAITSGASTYYADSVKGRFTISRDNAKNTVYLQMNTLKPEDTAVYYCAALYYWRSGYDAWGQGTQVTVSS | low polyreactivity
12 | QVQLVESGGGLVQAGGSLRLSCAASGFTLAFYGMGWYRQAPGKERELVAAISRSGGSTYYADSVKGRFTISRDNAKNTVYLQMNSLKPEDTAVYYCAAAFRAGAVYGYYWGQGTQVTVSS | high polyreactivity
13 | QVQLVESGGGLVQAGGSLRLSCAASGFTLDVNAIGWYRQAPGKERELVATISWGGASTYYADSVKGRFTISRDNAKNTVYLQMNSLKPEDTAVYYFAAQYYYPDDKGGYDYWGQGTQVTVSS | low polyreactivity
14 | QVQLVESGGGLVQAGGSLRLSCAASGFTLDYYAMGWYRKAPGKERELVAAISFSGGSTYYADSVKGRFTISRDNAKNTVYLQMNSLKPEDTAVYFCAADPQIVWYDYWGQGTQVTVSS | low polyreactivity
15 | QVQLVESGGGLVQAGGSLRLSCAASGFTLFFHAMGWYRQAPGKERELVATISERGDSTYYADSVKGRFTISRDNAKNTVYLQMNSLKPEDTAVYYCAAVGTYSSYGYWGQGTQVTVSS | high polyreactivity
16 | QVQLVESGGGLVQAGGSLRLSCAASGFTLGPYMGWYRQAPGKERELVAAISGGGGRTYYADSVKGRFTISRDNAKNTVYLQMNSLKPEDTSVYYCAAAYRSYKQFYSYGYEYWGQGTQVTVSS | high polyreactivity

Row | Sequence | polyreactivity (PSR sort gate)
17 | QVQLVESGGGLVQAGGSLRLSCAASGFTLIDYAMGWYRQAPGKERELVAAISGSGGRTYYADSVKGRFTISRDNAKNTVYLQMNSLKPEDTAVYYCAAGRRHVYKRRRYDYCGQGTQVTVSS | high polyreactivity
18 | QVQLVESGGGLVQAGGSLRLSCAASGFTLKYNTMGWYRQAPGKERELVAAITSSGVSTYYSDSVKGRFTISRDNAKNTVYLQMNSLKPEDTAVYYCNARERYSYWGQGTQVTVSS | high polyreactivity
19 | QVQLVESGGGLVQAGGSLRLSCAASGFTLLPYAMGWYRQAPGKERELVAAISRRGVSTYYADSVKGRFTISRDNAKNTVYLQMNSLIPEDTSVYYWASRYFTGYGLRTQFYFWGQGTQVTVSS | high polyreactivity
20 | QVQLVESGGGLVQAGGSLRLSCAASGFTLLWNAMGWYRQAPGKERELVAAINKSGGSTYADSVKGRFTISRDNAKNTVYLQMNSLKPEDTAVYYCAAEVDYSYWPEYARKYYYWGQGTQVTVSS | low polyreactivity
21 | QVQLVESGGGLVQAGGSLRLSCAASGFTLPANGMGWYRQAPGKERQLVAAISFIAGSTYYADSVKGRFTISRDNAKNTVYLQMKSLKPEDTAVYYCATQFPPSTFYDYWGQGTQVTVSS | low polyreactivity
22 | QVQLVESGGGLVQAGGSLRLSCAASGFTLPLYAMGWYRQAPGKERELVATISSGGTTYYADSVKGRFTISRDNAKNTVYLEMNCLKPEDTGVYYCAAGGTFFHRFYYYYRSDYWGQGTQVTVSS | high polyreactivity
23 | QVQLVESGGGLVQAGGSLRLSCAASGFTLRRYAMGWYRQAPGKERELVATITSGGTTDYADSVKGRFTISRDNAKNTVYLQMNSLKPEDTAVYYCAAYRRGAYYYWGQGTQVTVSS | high polyreactivity
24 | QVQLVESGGGLVQAGGSLRLSCAASGFTLSASAMGWYRQAPGKERELVAGITYTGGRTYYADSVKGRFTISRDNAKNTVYFQMNSLKPEVTAVYYCNKAWSGYYKYGYWGQGTQVSVSS | low polyreactivity
25 | QVQLVESGGGLVQAGGSLRLSCAASGFTLSSNPMGWNRQEPGKETELVAAISFNSTSTYYADSVKGRFTISRDNAKNTVYLQMKSLNPEDTAVYYCAADVPRVQSEPEYDYWGQGTQVTVSS | low polyreactivity
26 | QVQLVESGGGLVQAGGSLRLSCAASGFTLSWYAMGWYRQAPGKERELVATISRGGITYYADSVKGRFTLSRDNANNTVYVQMNSLKPEDTAVYYCAADYRYGWYRYDYWGQGTQVTVSS | high polyreactivity
27 | QVQLVESGGGLVQAGGSLRLSCAASGFTLTLRYAMGWYRQAPGKERELVAAISSGGRTKYADSVKGRFTISRDNAKNTVYLQMNSLKPEDTAVYYCAADLYDPYHVYGYNYWGQGTQVTVSS | low polyreactivity
28 | QVQLVESGGGLVQAGGSLRLSCAASGFTLTRNAMGWYRPAPGKERELVAAISWSGGTTYYADSVKGRFTISRDNAKNTVYLQMNSLKPEDTAVYYCAADSVKYGGDYWGQGTQVTVSS | high polyreactivity
29 | QVQLVESGGGLVQAGGSLRLSCAASGFTLWLYAMGWSRQAPGKERALVATISYRGDSTYYADSVKGRFTISRDNAKNTVYLQMNSLNPEDTAVYYCARRYTHTGRYYYWGQGTQVTVSS | high polyreactivity
30 | QVQLVESGGGLVQAGGSLRLSCAASGFTLWLYAMGWYRQAPGKERELVASISWAGGSTYYADSVKGRFTISRDNAKNTVYLQMNSLKPEDTAVYYCAASRARTRSAYNYSGQGTQVTVSS | high polyreactivity
31 | QVQLVESGGGLVQAGGSLRLSCAASGFTLWYNGMGWYRQAPGKERELVATISSRGGGSTYYADSVKGRFTISRDNAKNTVYLQMNSLKPEETAVYYCAADAYYLVPTEGDYWGQGTQVTVSS | low polyreactivity
32 | QVQLVESGGGLVQAGGSLRLSCAASGFTLYFYAMGWYRQAPGKERELVATITGSGGSTTYADSVKGRFTISRDNAKNTVYLQMNRLKPEDTAVSYCAAVRVVRASRYQTYHWQPGYCYWGQGTQVTVSS | high polyreactivity
